Experiment [1] has as its target Glutathiolated H-Ras^1-166 (Ras^SSG) (human) (UniProt P01112).
The target of experiment [2] is Truncated human H-ras (H-Ras^1-166), wild type (human) (UniProt P01112).

In the case of “Minimal catalytic domain of Son of Sevenless (SOS^cat) (domain or fragment)”, the rate of MANT-GDP dissociation from 1 uM Ras with SOS^cat at a 1:1 ratio, 25°C in experiment [1] is 0.00185 s⁻¹; in experiment [2], 0.00202 s⁻¹.

(Values after PMC3985386.)
